Assay results published in patent US20150253341A1 (Merck Sharp & Dohme, published 2015).

Target: human Tau protein (human, UniProt P10636-8 1-441, limits assumed)
Test: method not stated

Chain of human Tau protein (P10636 other isoform, or with tags, fused parts or gaps limits assumed): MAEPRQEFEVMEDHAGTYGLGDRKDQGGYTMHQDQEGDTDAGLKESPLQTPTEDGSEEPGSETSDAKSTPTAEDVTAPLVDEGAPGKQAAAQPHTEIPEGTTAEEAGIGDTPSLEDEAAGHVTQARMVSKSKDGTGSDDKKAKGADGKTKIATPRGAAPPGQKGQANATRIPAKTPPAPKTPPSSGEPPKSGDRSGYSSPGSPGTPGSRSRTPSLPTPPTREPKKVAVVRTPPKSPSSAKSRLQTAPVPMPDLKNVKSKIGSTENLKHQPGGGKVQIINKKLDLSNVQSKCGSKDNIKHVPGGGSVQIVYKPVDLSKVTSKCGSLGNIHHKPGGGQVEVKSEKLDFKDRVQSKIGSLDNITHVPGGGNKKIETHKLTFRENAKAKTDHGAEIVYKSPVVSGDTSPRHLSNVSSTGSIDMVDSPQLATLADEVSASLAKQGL

B1: mouse monoclonal anti-Tau antibody clone 13A6 (antibody, V domains shown)
VH: EVQLQQSGAELVRPGASVKLPCTASGFNIKDDYMNWVMQRPERGLEWIGWIDPENGDTAYASKFQGKATMTADTSSNTAYLQLSSLTSEDTAVYYCTSGGRFDYWGQGTSLTVSS
VL: DVLMTQTPLSLPVSLGDQASISCRSSQSIVHSNGSTYLEWYLQKPGQSPKLLIYKVSNRFSGVPDRFSGSGSGTDFTLKINRVEAEDLGVYYCFQGSHVPWTFGGGTKLEIK
notes: Mouse monoclonal from a hybridoma; also called mAb 13A6; antibody 13A6
  Kd: 9.7 nM
